Measurements published in the RNAGym collection of RNA variant scans (doi:10.7554/elife.90254).

B1: LINE1-full (parent)
chain: UACGUAGGUGGUUUUCCCCUGAUAGUGCUAAGGGGGCCUGGAAGUUUGGACUGGGCAGAGCUCAACACAGCGUGGCAAAGUGGCUGUGGCUAGACUGCCUCUCUGGAUUCCUCGUCACUCAGCAGGGCAUCUCUGAGAGAAAUGCC

Variants of: B1
Assay: self-cleavage, relative activity (ratio to wild type); higher = more cleavage; in vitro, sequencing; the parent is a self-cleaving ribozyme
Work on C98G G125A yielded a self-cleavage of 0.05. Variant A92G U100A has a self-cleavage of 0.13. Variant A94U U112G has a self-cleavage of 0.42. A94U A136G gave a self-cleavage of 0.3. Variant U96A C116U has a self-cleavage of 0.11. In the case of G93U A121C, the self-cleavage is reported as 0.03. Variant A92G U130C has a self-cleavage of 0.11. Work on U91C U112A yielded a self-cleavage of 0.42. With A94U C133U the self-cleavage was 0.29. A92G C128A gave a self-cleavage of 0.04. A92G C128U showed a self-cleavage of 0.03. In the case of G93U G127C, the self-cleavage is reported as 0.19. With A92C A138G the self-cleavage was 0.14. Variant A94C G126C has a self-cleavage of 0.23. A94U C113U gave a self-cleavage of 0.12. For U96C G106U, the self-cleavage was 0.06. With A94G A140G the self-cleavage was 0.26. Variant U91C U104A has a self-cleavage of 0.34. U91C U104C gave a self-cleavage of 1.15. U96C G144A gave a self-cleavage of 0.25. A92U A129U gave a self-cleavage of 0.6. Work on A92U A129G yielded a self-cleavage of 0.69. Work on C95U U119C yielded a self-cleavage of 0.22. With C98A U130C the self-cleavage was 0.13. In the case of A92G G126U, the self-cleavage is reported as 0.13. Variant G97A A138G has a self-cleavage of 0.14. With A94C U109C the self-cleavage was 0. For A94C U109A, the self-cleavage was 0.05. Work on A92G U143A yielded a self-cleavage of 0.14. A92U C120U showed a self-cleavage of 0.78. For C95U A117U, the self-cleavage was 0.21. For A92U U134C, the self-cleavage was 0.71. Variant A92U U134A has a self-cleavage of 0.52. With U91C A129U the self-cleavage was 0.82. For U96G U102C, the self-cleavage was 0. U96C showed a self-cleavage of 0.13. Variant U96A has a self-cleavage of 0.07. With U96G the self-cleavage was 0.1. Variant A94G G126A has a self-cleavage of 0.21. Work on A94G A117U yielded a self-cleavage of 0.4. Work on A92G A129U yielded a self-cleavage of 0.17. Work on U96A G114A yielded a self-cleavage of 0.06. Work on G97A A107G yielded a self-cleavage of 0.13. In the case of U96C U119A, the self-cleavage is reported as 0.18. In the case of U96C U119C, the self-cleavage is reported as 0.22. With G97A A117U the self-cleavage was 0.17. Work on G93A A129G yielded a self-cleavage of 0.08. A92U U130A showed a self-cleavage of 0.67. In the case of C98U U102C, the self-cleavage is reported as 0.55. Variant A92G U132C has a self-cleavage of 0.05. In the case of C95U U134C, the self-cleavage is reported as 0.11. Variant U96A C111U has a self-cleavage of 0.07. Variant U96C G122A has a self-cleavage of 0.07. Work on A94U U102C yielded a self-cleavage of 0.16. In the case of C98A A138G, the self-cleavage is reported as 0.29. Work on A92U U109A yielded a self-cleavage of 0.34. Work on A92U U109C yielded a self-cleavage of 0.65. In the case of U96C C120U, the self-cleavage is reported as 0.2. In the case of U96C C133U, the self-cleavage is reported as 0.08. U91C U100C gave a self-cleavage of 0.48. With A94G C113U the self-cleavage was 0.09. For U91C U109C, the self-cleavage was 0.61. Work on A94G U96C yielded a self-cleavage of 0.11. With A94G U96A the self-cleavage was 0.11. Work on A94G G105A yielded a self-cleavage of 0.18. Work on A94G G105U yielded a self-cleavage of 0.2. For A92G G97C, the self-cleavage was 0.06. Variant A94G A107G has a self-cleavage of 0.51. U96C U112C gave a self-cleavage of 0.12. For U96C U112A, the self-cleavage was 0.12. With A94C A107G the self-cleavage was 0.13. In the case of U96C C128U, the self-cleavage is reported as 0.12. U91C A124C showed a self-cleavage of 0.69. Variant A92G C113U has a self-cleavage of 0.1. Work on A92G G127A yielded a self-cleavage of 0.12. U91G U119C gave a self-cleavage of 0. Variant G97A A136U has a self-cleavage of 0.11. U91C A136G showed a self-cleavage of 0.8. U91C C99U gave a self-cleavage of 0.12. Variant U91C C146U has a self-cleavage of 0.53. With A92G U115C the self-cleavage was 0.08. With C99A the self-cleavage was 0.4. U91C U132C showed a self-cleavage of 0.83. U91C A117C showed a self-cleavage of 1.24. Variant U96A A129U has a self-cleavage of 0.07. U96A A129G gave a self-cleavage of 0.07. Variant U96C G139U has a self-cleavage of 0.14. U96G C120U gave a self-cleavage of 0.04. For A92G A94U, the self-cleavage was 0.05. Variant U96C G97A has a self-cleavage of 0.02. With U91G G114C the self-cleavage was 0.02. Work on U96A A107U yielded a self-cleavage of 0.08. With U96A A107G the self-cleavage was 0.08. Variant U91C A121G has a self-cleavage of 1.29. Work on A92U A141G yielded a self-cleavage of 0.96. For U91C G137A, the self-cleavage was 1.14. G93A U112C showed a self-cleavage of 0.06. A94G A142G showed a self-cleavage of 0.41. Work on A92G C146U yielded a self-cleavage of 0.07. With U96C U102C the self-cleavage was 0.12. With U96C U102A the self-cleavage was 0.11. G97A U134C showed a self-cleavage of 0.07. In the case of A92U A107U, the self-cleavage is reported as 0.89. Variant A92U A107C has a self-cleavage of 0.9. A92G A141G gave a self-cleavage of 0.12. Work on U96A C145A yielded a self-cleavage of 0.06. Work on G93A A142G yielded a self-cleavage of 0.04. For A94G U119C, the self-cleavage was 0.38. A94G U119A showed a self-cleavage of 0.39. Variant A92G G137U has a self-cleavage of 0.07. With U96C A138G the self-cleavage was 0.2. In the case of U96A G144A, the self-cleavage is reported as 0.07. A94U A129G gave a self-cleavage of 0.3. With A94G A138G the self-cleavage was 0.19. For A94U A124G, the self-cleavage was 0.33. A94U A124U showed a self-cleavage of 0.35. With A92U U108A the self-cleavage was 0.6. U91C C98A showed a self-cleavage of 0.06. For U91C A94G, the self-cleavage was 0.15. U91C A94U gave a self-cleavage of 0.2. U96A C123U gave a self-cleavage of 0.06. In the case of U91C G125A, the self-cleavage is reported as 0.32. C98U A107G gave a self-cleavage of 0.46. With U96A G127U the self-cleavage was 0.05. In the case of C95U A141G, the self-cleavage is reported as 0.07. U91C C101U showed a self-cleavage of 0.69. C98U U115A showed a self-cleavage of 0.44. A92U A94G gave a self-cleavage of 0.05. With A92U A117G the self-cleavage was 1.46. U91G U143C gave a self-cleavage of 0.07. G93A A141G showed a self-cleavage of 0.04. With A92G C133U the self-cleavage was 0.02. U96A U102C gave a self-cleavage of 0.12. In the case of U96A U102A, the self-cleavage is reported as 0.1. U91C G135A gave a self-cleavage of 0.73. For U96G U134C, the self-cleavage was 0.23. Work on U96C A124G yielded a self-cleavage of 0.06. A94G U108C gave a self-cleavage of 0.61. C98A U108C gave a self-cleavage of 0.4. With U96A U108A the self-cleavage was 0.13. With A92G C118U the self-cleavage was 0.07. For A94G C131U, the self-cleavage was 0.17. Work on A92G U119C yielded a self-cleavage of 0.1. A94G C133A gave a self-cleavage of 0.46. A92U U96C showed a self-cleavage of 0.11. In the case of G97A U108C, the self-cleavage is reported as 0.17. With A92C U104A the self-cleavage was 0.38. Work on U96A G105A yielded a self-cleavage of 0.04. A94C A117C gave a self-cleavage of 0.07. In the case of A94C A117G, the self-cleavage is reported as 0.22. With A94U A121G the self-cleavage was 0.52. U96A C110G gave a self-cleavage of 0.09. With U91C G144A the self-cleavage was 0.47. Work on G93A A140G yielded a self-cleavage of 0.06. In the case of U96G U112C, the self-cleavage is reported as 0.05. Variant C95A U130C has a self-cleavage of 0. U96A A117G showed a self-cleavage of 0.11. U96G U119A showed a self-cleavage of 0.03. Variant A92U A124U has a self-cleavage of 1.2. In the case of C95U U104C, the self-cleavage is reported as 0.54. Work on U91C G97A yielded a self-cleavage of 0.05. In the case of G93U U112C, the self-cleavage is reported as 0.03. Variant G93A A117G has a self-cleavage of 0.06. Work on A92G C103U yielded a self-cleavage of 0.03. For A92G A124G, the self-cleavage was 0.04. Variant U96A A138G has a self-cleavage of 0.07. In the case of A92U C118G, the self-cleavage is reported as 0.37.
